# Data: PMC3518592 (Structure (London, England : 1993), 2012)
# B1: gp78CUE domain (453–504) (domain or fragment, human, UniProt Q9UKV5 453-504, looked up)
# chain: SNSQLNAMAHQIQEMFPQVPYHLVLQDLQLTRSVEITTDNILEGRIQVPFPT
# Experiments:
# ubiquitin (D77) [1] = target: T1, ubiquitin (D77) (UniProt P0CG48 1-76, D77); assay: NMR titration
# ubiquitin (D77) [2] = target: T1, ubiquitin (D77); assay: ITC
# ubiquitin (D77) [3] = target: T1, ubiquitin (D77); assay: ITC; remark: listed apart in the source
binder,measurement,setting,value
B1,Kd,ubiquitin (D77) [1],13.6 ± 12 µM
same,Kd,ubiquitin (D77) [2],12.8 ± 0.7 µM
same,dH,ubiquitin (D77) [3],-14.3 ± 0.1 kJ/mol
same,stoichiometry N,ubiquitin (D77) [3],0.91
